Results as given in patent US20180155451A1 (published 2018).

T1: FcγRIIa R (FcγRIIa, allotype R: Arg at position 131) extracellular domain with C-terminal His tag (human, UniProt P12318 34-217)
T1 construct: extracellular domain; also called FcgRIIa R; 2aR; not shown: His tag at the C terminus
T1 sequence (looked up): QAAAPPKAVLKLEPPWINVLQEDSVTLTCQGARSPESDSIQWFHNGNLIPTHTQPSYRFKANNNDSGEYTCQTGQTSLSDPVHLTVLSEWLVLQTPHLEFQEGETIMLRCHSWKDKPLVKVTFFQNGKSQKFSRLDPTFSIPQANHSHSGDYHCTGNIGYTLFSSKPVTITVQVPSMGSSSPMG

T2: FcγRIIb extracellular domain with C-terminal His tag (human, UniProt P31994 43-217)
T2 construct: extracellular domain; also called FcgRIIb; 2b; not shown: His tag at the C terminus
T2 sequence (looked up): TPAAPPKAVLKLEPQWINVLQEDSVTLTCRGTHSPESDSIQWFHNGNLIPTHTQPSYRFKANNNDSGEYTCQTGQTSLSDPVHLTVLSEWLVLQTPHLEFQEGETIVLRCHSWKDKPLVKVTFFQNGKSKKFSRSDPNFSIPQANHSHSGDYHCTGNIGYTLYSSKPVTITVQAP

B1: GpH7-B3 variant S337_08L/GpL16-k0 (antibody, human IgG1, kappa)
heavy: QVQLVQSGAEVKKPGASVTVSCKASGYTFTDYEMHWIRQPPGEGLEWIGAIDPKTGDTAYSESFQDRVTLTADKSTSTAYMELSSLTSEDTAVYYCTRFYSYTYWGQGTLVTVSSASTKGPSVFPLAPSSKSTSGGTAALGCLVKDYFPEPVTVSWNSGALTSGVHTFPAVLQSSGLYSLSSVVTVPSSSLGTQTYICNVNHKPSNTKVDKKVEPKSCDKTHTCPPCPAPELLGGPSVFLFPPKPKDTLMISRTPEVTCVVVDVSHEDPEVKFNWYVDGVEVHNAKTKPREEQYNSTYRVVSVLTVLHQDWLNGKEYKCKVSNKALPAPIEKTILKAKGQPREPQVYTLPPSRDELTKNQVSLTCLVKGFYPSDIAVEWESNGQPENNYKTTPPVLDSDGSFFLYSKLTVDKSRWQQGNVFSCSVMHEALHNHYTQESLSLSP
light: DIVMTQSPLSLPVTPGEPASISCQASESLVHSNRNTYLHWYLQKPGQSPQLLIYKVSNRFSGVPDRFSGSGSGTDFTLKISRVEAEDVGVYYCSQNTHVPPTFGQGTKVEIERTVAAPSVFIFPPSDEQLKSGTASVVCLLNNFYPREAKVQWKVDNALQSGNSQESVTEQDSKDSTYSLSSTLTLSKADYEKHKVYACEVTHQGLSSPVTKSFNRGEC
notes: homodimerized, mutation in both H chains; also called Ho Ab
B2: GpH7-B3 variant T335_20W/GpL16-k0 (antibody, human IgG1, kappa)
heavy: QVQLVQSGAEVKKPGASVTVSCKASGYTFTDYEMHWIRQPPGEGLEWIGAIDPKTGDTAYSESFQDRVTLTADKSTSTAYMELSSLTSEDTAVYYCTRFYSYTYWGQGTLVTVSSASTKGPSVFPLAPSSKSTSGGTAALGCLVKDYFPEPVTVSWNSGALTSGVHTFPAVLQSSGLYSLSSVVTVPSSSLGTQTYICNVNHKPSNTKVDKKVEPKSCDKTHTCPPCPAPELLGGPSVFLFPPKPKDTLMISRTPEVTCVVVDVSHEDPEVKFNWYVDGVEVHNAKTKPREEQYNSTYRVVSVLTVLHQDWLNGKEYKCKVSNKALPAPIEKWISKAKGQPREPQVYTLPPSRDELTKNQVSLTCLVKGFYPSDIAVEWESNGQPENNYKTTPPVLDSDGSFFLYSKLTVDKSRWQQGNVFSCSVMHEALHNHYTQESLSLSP
light: B1 light
notes: as for B1
B3: GpH7-B3 variant Y296_04F/GpL16-k0 (antibody, human IgG1, kappa)
heavy: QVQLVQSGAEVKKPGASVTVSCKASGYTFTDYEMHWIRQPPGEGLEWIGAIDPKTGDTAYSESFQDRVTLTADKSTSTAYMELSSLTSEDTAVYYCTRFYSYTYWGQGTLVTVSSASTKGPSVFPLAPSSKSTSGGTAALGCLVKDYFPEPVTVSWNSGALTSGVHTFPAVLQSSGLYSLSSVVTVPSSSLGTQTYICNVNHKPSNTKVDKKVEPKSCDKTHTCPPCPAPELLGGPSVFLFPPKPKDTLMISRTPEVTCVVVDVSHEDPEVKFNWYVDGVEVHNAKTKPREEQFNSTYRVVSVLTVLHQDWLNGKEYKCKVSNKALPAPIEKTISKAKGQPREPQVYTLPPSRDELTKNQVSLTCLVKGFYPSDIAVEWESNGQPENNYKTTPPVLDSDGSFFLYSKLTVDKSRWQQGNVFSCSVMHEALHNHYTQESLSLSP
light: B1 light
notes: as for B1
B4: GpH7-B3 variant Y296_09D/GpL16-k0 (antibody, human IgG1, kappa)
heavy: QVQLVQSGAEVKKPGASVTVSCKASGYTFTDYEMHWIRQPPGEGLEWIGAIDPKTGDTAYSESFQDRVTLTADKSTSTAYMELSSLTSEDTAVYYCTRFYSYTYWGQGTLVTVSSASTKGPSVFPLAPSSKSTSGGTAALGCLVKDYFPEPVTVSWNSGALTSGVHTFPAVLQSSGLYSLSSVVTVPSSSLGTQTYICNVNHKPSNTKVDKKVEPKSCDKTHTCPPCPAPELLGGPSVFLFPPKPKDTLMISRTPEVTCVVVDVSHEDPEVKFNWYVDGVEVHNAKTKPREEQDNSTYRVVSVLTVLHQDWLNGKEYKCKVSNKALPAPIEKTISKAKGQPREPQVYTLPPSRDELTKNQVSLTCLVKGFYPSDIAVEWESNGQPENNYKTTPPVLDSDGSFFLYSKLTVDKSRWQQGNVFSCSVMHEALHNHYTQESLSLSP
light: B1 light
notes: as for B1
B5: GpH7-B3 variant T335_18N/GpL16-k0 (antibody, human IgG1, kappa)
heavy: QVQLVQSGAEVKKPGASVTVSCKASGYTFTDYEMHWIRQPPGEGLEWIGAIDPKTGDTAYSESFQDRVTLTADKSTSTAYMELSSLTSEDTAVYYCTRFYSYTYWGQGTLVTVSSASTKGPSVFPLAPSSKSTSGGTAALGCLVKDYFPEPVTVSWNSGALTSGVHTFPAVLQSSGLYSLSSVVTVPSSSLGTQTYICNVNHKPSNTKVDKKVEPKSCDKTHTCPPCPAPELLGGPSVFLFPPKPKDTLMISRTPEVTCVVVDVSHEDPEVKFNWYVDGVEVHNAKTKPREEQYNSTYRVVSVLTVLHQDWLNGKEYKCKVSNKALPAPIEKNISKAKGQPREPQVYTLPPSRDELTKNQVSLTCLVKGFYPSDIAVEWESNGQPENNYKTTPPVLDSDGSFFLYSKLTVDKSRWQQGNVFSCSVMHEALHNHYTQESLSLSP
light: B1 light
notes: as for B1
B6: GpH7-B3 variant V266_08L/GpL16-k0 (antibody, human IgG1, kappa)
heavy: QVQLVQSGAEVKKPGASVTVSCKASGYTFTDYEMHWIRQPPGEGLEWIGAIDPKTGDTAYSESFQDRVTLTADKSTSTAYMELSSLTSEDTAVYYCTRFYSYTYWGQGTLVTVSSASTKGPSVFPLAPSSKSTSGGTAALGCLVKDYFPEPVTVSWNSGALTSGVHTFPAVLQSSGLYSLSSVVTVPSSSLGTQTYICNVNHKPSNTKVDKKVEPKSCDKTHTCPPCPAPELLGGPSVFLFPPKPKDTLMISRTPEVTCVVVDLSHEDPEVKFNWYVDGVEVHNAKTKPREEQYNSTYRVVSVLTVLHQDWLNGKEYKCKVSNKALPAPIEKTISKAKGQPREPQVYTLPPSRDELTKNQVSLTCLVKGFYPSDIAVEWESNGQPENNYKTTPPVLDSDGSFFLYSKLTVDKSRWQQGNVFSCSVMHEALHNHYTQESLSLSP
light: B1 light
notes: as for B1
B7: GpH7-B3 variant S337_20W/GpL16-k0 (antibody, human IgG1, kappa)
heavy: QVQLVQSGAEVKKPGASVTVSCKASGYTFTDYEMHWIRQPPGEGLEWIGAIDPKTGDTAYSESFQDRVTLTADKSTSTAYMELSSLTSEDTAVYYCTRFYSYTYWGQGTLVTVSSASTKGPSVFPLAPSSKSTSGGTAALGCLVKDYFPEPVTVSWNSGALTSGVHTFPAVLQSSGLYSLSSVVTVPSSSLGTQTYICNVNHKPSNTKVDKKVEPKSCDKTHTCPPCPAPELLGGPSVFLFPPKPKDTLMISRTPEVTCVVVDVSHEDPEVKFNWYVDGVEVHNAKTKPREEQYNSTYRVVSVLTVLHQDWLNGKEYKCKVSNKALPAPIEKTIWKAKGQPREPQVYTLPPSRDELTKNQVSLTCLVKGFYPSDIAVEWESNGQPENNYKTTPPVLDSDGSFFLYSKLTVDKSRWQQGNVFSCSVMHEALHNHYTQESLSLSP
light: B1 light
notes: as for B1
B8: GpH7-B3 variant Y296_16H/GpL16-k0 (antibody, human IgG1, kappa)
heavy: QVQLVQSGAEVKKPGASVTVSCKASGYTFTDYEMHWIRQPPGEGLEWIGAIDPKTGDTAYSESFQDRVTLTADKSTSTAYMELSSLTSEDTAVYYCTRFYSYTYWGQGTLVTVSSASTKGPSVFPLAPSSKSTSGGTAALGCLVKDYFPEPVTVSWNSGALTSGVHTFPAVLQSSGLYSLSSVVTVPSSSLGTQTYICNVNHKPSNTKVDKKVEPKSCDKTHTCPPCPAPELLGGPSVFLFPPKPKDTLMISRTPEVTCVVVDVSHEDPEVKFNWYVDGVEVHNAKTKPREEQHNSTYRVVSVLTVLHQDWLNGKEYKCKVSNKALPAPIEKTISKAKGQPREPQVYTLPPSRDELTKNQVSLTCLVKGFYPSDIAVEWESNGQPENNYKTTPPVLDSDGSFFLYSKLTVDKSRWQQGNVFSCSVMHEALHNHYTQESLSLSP
light: B1 light
notes: as for B1
B9: GpH7-A5/GpH7-B3 variant Y300_18N/GpL16-k0 (antibody, human IgG1, kappa)
heavy 1: not shown
heavy 2: not shown
light: B1 light
notes: He Ab: alteration in the GpH7-B3 H chain only; also called He Ab
B10: GpH7-A5/GpH7-B3 variant H268_11K/GpL16-k0 (antibody, human IgG1, kappa)
heavy 1: not shown
heavy 2: not shown
light: B1 light
notes: as for B9
B11: GpH7-A5/GpH7-B3 variant S239_14T/GpL16-k0 (antibody, human IgG1, kappa)
heavy 1: not shown
heavy 2: not shown
light: B1 light
notes: as for B9
B12: GpH7-A5/GpH7-B3 variant Y296_13S/GpL16-k0 (antibody, human IgG1, kappa)
heavy 1: not shown
heavy 2: not shown
light: B1 light
notes: as for B9
B13: GpH7-A5/GpH7-B3 variant P331_02A/GpL16-k0 (antibody, human IgG1, kappa)
heavy 1: not shown
heavy 2: not shown
light: B1 light
notes: as for B9
B14: GpH7-A5/GpH7-B3 variant A330_11K/GpL16-k0 (antibody, human IgG1, kappa)
heavy 1: not shown
heavy 2: not shown
light: B1 light
notes: as for B9
B15: GpH7-A5/GpH7-B3 variant E333_04F/GpL16-k0 (antibody, human IgG1, kappa)
heavy 1: not shown
heavy 2: not shown
light: B1 light
notes: as for B9
B16: GpH7-A5/GpH7-B3 variant P331_08L/GpL16-k0 (antibody, human IgG1, kappa)
heavy 1: not shown
heavy 2: not shown
light: B1 light
notes: as for B9
B17: GpH7-A5/GpH7-B3 variant N325_14T/GpL16-k0 (antibody, human IgG1, kappa)
heavy 1: not shown
heavy 2: not shown
light: B1 light
notes: as for B9
B18: GpH7-A5/GpH7-B3 variant Y296_14T/GpL16-k0 (antibody, human IgG1, kappa)
heavy 1: not shown
heavy 2: not shown
light: B1 light
notes: as for B9
B19: GpH7-A5/GpH7-B3 variant L234_04F/GpL16-k0 (antibody, human IgG1, kappa)
heavy 1: not shown
heavy 2: not shown
light: B1 light
notes: as for B9
B20: GpH7-A5/GpH7-B3 variant Y296_06M/GpL16-k0 (antibody, human IgG1, kappa)
heavy 1: not shown
heavy 2: not shown
light: B1 light
notes: as for B9
B21: GpH7-A5/GpH7-B3 variant Y296_09D/GpL16-k0 (antibody, human IgG1, kappa)
heavy 1: not shown
heavy 2: not shown
light: B1 light
notes: as for B9
B22: GpH7-A5/GpH7-B3 variant Y296_18N/GpL16-k0 (antibody, human IgG1, kappa)
heavy 1: not shown
heavy 2: not shown
light: B1 light
notes: as for B9
B23: GpH7-A5/GpH7-B3 variant S324_04F/GpL16-k0 (antibody, human IgG1, kappa)
heavy 1: not shown
heavy 2: not shown
light: B1 light
notes: as for B9
B24: GpH7-A5/GpH7-B3 variant E333_05P/GpL16-k0 (antibody, human IgG1, kappa)
heavy 1: not shown
heavy 2: not shown
light: B1 light
notes: as for B9
B25: GpH7-A5/GpH7-B3 variant N325_15Y/GpL16-k0 (antibody, human IgG1, kappa)
heavy 1: not shown
heavy 2: not shown
light: B1 light
notes: as for B9
B26: GpH7-A5/GpH7-B3 variant Y296_10E/GpL16-k0 (antibody, human IgG1, kappa)
heavy 1: not shown
heavy 2: not shown
light: B1 light
notes: as for B9
B27: GpH7-A5/GpH7-B3 variant P331_09D/GpL16-k0 (antibody, human IgG1, kappa)
heavy 1: not shown
heavy 2: not shown
light: B1 light
notes: as for B9
B28: GpH7-A5/GpH7-B3 variant H268_12R/GpL16-k0 (antibody, human IgG1, kappa)
heavy 1: not shown
heavy 2: not shown
light: B1 light
notes: as for B9
B29: GpH7-A5/GpH7-B3 variant Y296_04F/GpL16-k0 (antibody, human IgG1, kappa)
heavy 1: not shown
heavy 2: not shown
light: B1 light
notes: as for B9
B30: GpH7-A5/GpH7-B3 variant P331_13S/GpL16-k0 (antibody, human IgG1, kappa)
heavy 1: not shown
heavy 2: not shown
light: B1 light
notes: as for B9
B31: GpH7-A5/GpH7-B3 variant Y300_04F/GpL16-k0 (antibody, human IgG1, kappa)
heavy 1: not shown
heavy 2: not shown
light: B1 light
notes: as for B9
B32: GpH7-A5/GpH7-B3 variant A330_15Y/GpL16-k0 (antibody, human IgG1, kappa)
heavy 1: not shown
heavy 2: not shown
light: B1 light
notes: as for B9
B33: GpH7-A5/GpH7-B3 variant K326_12R/GpL16-k0 (antibody, human IgG1, kappa)
heavy 1: not shown
heavy 2: not shown
light: B1 light
notes: as for B9
B34: GpH7-A5/GpH7-B3 variant A330_12R/GpL16-k0 (antibody, human IgG1, kappa)
heavy 1: not shown
heavy 2: not shown
light: B1 light
notes: as for B9
B35: GpH7-A5/GpH7-B3 variant P331_18N/GpL16-k0 (antibody, human IgG1, kappa)
heavy 1: not shown
heavy 2: not shown
light: B1 light
notes: as for B9
B36: GpH7-A5/GpH7-B3 variant Q295_06M/GpL16-k0 (antibody, human IgG1, kappa)
heavy 1: not shown
heavy 2: not shown
light: B1 light
notes: as for B9
B37: GpH7-A5/GpH7-B3 variant P331_14T/GpL16-k0 (antibody, human IgG1, kappa)
heavy 1: not shown
heavy 2: not shown
light: B1 light
notes: as for B9
B38: GpH7-A5/GpH7-B3 variant Q295_10E/GpL16-k0 (antibody, human IgG1, kappa)
heavy 1: not shown
heavy 2: not shown
light: B1 light
notes: as for B9
B39: GpH7-A5/GpH7-B3 variant Y296_19Q/GpL16-k0 (antibody, human IgG1, kappa)
heavy 1: not shown
heavy 2: not shown
light: B1 light
notes: as for B9
B40: GpH7-A5/GpH7-B3 variant A330_19Q/GpL16-k0 (antibody, human IgG1, kappa)
heavy 1: not shown
heavy 2: not shown
light: B1 light
notes: as for B9
B41: GpH7-A5/GpH7-B3 variant N325_10E/GpL16-k0 (antibody, human IgG1, kappa)
heavy 1: not shown
heavy 2: not shown
light: B1 light
notes: as for B9
B42: GpH7-A5/GpH7-B3 variant Y296_07I/GpL16-k0 (antibody, human IgG1, kappa)
heavy 1: not shown
heavy 2: not shown
light: B1 light
notes: as for B9
B43: GpH7-A5/GpH7-B3 variant Y296_16H/GpL16-k0 (antibody, human IgG1, kappa)
heavy 1: not shown
heavy 2: not shown
light: B1 light
notes: as for B9

biological target: FcγRIIa H (human FcγRIIa, allotype with His at position 131), extracellular domain with C-terminal His tag (human, UniProt P12318 34-217); test: SPR (Biacore), antibody captured on antigen peptide chip, FcγR as analyte; relative to HoCon Ab GpH7-B3/GpL16-k0 = 100

Ho/Con_2aH	Binder
93.1 control = 100	B1
98.7 control = 100	B2
95 control = 100	B3
99.9 control = 100	B4
98 control = 100	B5
91.5 control = 100	B6
96.6 control = 100	B7
85.7 control = 100	B8

biological target: T1, FcγRIIa R (FcγRIIa, allotype R: Arg at …); test: SPR Biacore, antibody captured, FcgR analyte; vs HeCon Ab GpH7-A5/GpH7-B3/GpL16-k0 = 100
Method: (§1) The heterodimerized antibodies He Abs in which one of the H chains was introduced with an alteration were assayed for their binding activities to each activating FcγR and inhibitory FcγR according to the method described in Example 4. […] The activating FcγRs in FIGS. 26, 27, 28, and 29 are FcγRIa, FcγRIIa (R), FcγRIIa (H), and FcγRIIIa, respectively.
(§2) Analysis of interaction between objective antibody and the FcγR was carried out using Biacore T100 (GE Healthcare). HBS-EP+ (GE Healthcare) was used as the running buffer, and the measurement temperature was set to 25° C. Chips produced by immobilizing the antigen peptide by the amine coupling method to a Series S Sencor Chip CM5 (GE Healthcare), or alternatively, chips produced by allowing preliminarily biotinylated antigen peptides to interact with and immobilize onto a Series S Sensor Chip SA (certified) (GE Healthcare) were used. Antibodies of interest were captured onto an antigen peptide-immobilized chip, and allowed to interact to each FcγR diluted with running buffer. To regenerate and repeatedly use the chip, the antibodies captured on the chip were washed off by reacting 10 mM glycine-HCl, pH 1.5.

He/Con_2aR	Binder
100 control = 100	B9
100 control = 100	B10
103 control = 100	B11
102 control = 100	B12
106 control = 100	B13
110 control = 100	B14
102 control = 100	B15
102 control = 100	B16
105 control = 100	B17
103 control = 100	B18
104 control = 100	B19
101 control = 100	B20
106 control = 100	B21
104 control = 100	B22
104 control = 100	B23
105 control = 100	B24
101 control = 100	B25
103 control = 100	B26

He/Con_2aR	Binder
102 control = 100	B27
105 control = 100	B28
109 control = 100	B29
105 control = 100	B30
108 control = 100	B31
102 control = 100	B32
103 control = 100	B33
104 control = 100	B34
105 control = 100	B35
102 control = 100	B36
104 control = 100	B37
102 control = 100	B38
102 control = 100	B39
104 control = 100	B40
105 control = 100	B41
101 control = 100	B42
105 control = 100	B43

biological target: T2, FcγRIIb extracellular domain with …; test: as above
Method: as §1, §2

He/Con_2b	Binder
82.7 control = 100	B9
83 control = 100	B10
97.3 control = 100	B11
86.3 control = 100	B12
99.5 control = 100	B13
95 control = 100	B14
94.6 control = 100	B15
95.7 control = 100	B16
91.6 control = 100	B17
88.2 control = 100	B18
99.8 control = 100	B19
87.8 control = 100	B20
98.9 control = 100	B21
91.5 control = 100	B22
89.1 control = 100	B23
97.7 control = 100	B24
99.5 control = 100	B25
98 control = 100	B26

He/Con_2b	Binder
94.3 control = 100	B27
89.8 control = 100	B28
99.2 control = 100	B29
96.8 control = 100	B30
94.8 control = 100	B31
95 control = 100	B32
89.2 control = 100	B33
84.8 control = 100	B34
99.2 control = 100	B35
90.4 control = 100	B36
99.8 control = 100	B37
94.8 control = 100	B38
89.3 control = 100	B39
90.8 control = 100	B40
95.9 control = 100	B41
84.3 control = 100	B42
92.2 control = 100	B43
